Results: PMC5259998

B1: Soluble sdAb produced from PhC11 (VHH)
VHH: QVEVVASGGGLVQAGESLRLSCTASGFTFDNVAAGWFRQAPGKEREGVACISKNGRTTDSADSVKGRFTISRDTAKNTVYLQMDKLKVEDTAEYYCAATYLNTCVLSSPPENIHYWGKGTQVTVS
B2: Soluble sdAb produced from PhC12 (VHH)
VHH: RREVVESGGGLVQPGESLRVACAASGFTVSSYIMHWVRQAPGKGLEWVSYIDHGGNTVYGDSVKGRFTISRDNAKNTLALQMNSLKPEDTALYYCVRDGDNTHFVAYDYWGQGTLVTVS

Molecular target: H-OspA, freshly biotinylated (Borrelia bavariensis strain SKT-7.1)
Assay: BLI; BLItz; biotinylated H-OspA on streptavidin biosensors (250 μg/mL, 150 s); soluble sdAb at 7.25, 14.5 and 29 μM; 120 s association, 120 s dissociation; PBS-T, 0.02% Tween-20; global fitting (1:1)

| Binder | koff [s⁻¹] | kon [M⁻¹ s⁻¹] |
| --- | --- | --- |
| B1 | 0.0586 | 13700 |
| B2 | 0.146 | 185 |
